Among the data in PMC5001606 are Kd values, retold here.

Experiment in all cases: MST
In data set [1] the target is T1, HiNmlR wild-type (Haemophilus influenzae Rd KW20, UniProt P44558 1-135).
T1 sequence: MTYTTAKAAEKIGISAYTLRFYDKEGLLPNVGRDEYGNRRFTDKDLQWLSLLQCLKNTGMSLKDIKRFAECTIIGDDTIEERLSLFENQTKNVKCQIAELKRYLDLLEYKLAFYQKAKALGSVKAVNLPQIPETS

Data set [2] deals with T2, HiNmlR C71A/C95A (Haemophilus influenzae Rd KW20, UniProt P44558 1-135, C71A;C95A).
T2 sequence: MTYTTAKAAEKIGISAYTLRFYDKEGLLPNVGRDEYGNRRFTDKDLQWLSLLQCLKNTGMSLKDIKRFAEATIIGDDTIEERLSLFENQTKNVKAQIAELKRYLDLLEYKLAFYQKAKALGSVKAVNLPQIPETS

In data set [3] the target is T3, HiNmlR C54A/C71A/C95A (Haemophilus influenzae Rd KW20, UniProt P44558 1-135, C54A;C71A;C95A).
T3 sequence: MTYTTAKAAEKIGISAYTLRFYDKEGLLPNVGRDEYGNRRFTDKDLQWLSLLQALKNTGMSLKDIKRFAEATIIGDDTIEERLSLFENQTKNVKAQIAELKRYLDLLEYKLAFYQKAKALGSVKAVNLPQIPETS

Data set [4] concerns the target T4, HiNmlR C54A/C95A (Haemophilus influenzae Rd KW20, UniProt P44558 1-135, C54A;C95A).
T4 sequence: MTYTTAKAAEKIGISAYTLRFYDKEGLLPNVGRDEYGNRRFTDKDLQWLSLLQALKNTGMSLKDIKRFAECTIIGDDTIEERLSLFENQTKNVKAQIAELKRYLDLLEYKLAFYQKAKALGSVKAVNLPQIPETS

The target of data set [5] is T5, HiNmlR C54A (Haemophilus influenzae Rd KW20, UniProt P44558 1-135, C54A).
T5 sequence: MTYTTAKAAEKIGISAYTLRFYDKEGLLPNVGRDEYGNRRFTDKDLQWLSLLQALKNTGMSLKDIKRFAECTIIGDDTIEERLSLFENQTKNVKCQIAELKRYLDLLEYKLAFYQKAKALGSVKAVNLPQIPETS

B1: C5G 24-bp (dsDNA)
DNA 1: CACTTTAGAGTTCACTGTAAAGCA
DNA 2: TGCTTTACAGTGAACTCTAAAGTG
What is called Kd is the equilibrium constant for the complex coming apart. A high value points to weaker binding. Take B1: in data set [1], binding was characterised by a dissociation constant (Kd) of 252 ± 17.4 nM.

B2: G5'C 24-bp (dsDNA)
DNA 1: CACTTTACAGTTCACTCTAAAGCA
DNA 2: TGCTTTAGAGTGAACTGTAAAGTG
In data set [1], B2 yielded a Kd of 245 ± 26.1 nM.

B3: G5'C/C5G 24-bp (dsDNA)
DNA 1: CACTTTACAGTTCACTGTAAAGCA
DNA 2: TGCTTTACAGTGAACTGTAAAGTG
Turning to B3, the dissociation constant (Kd) in data set [1] came to 4690 ± 311 nM.

B4: PadhC-estD/nmlR IR wt 24-bp (dsDNA)
DNA 1: CACTTTAGAGTTCACTCTAAAGCA
DNA 2: TGCTTTAGAGTGAACTCTAAAGTG
For B4, the equilibrium dissociation constant (Kd) stood at 33 ± 3.4 nM in data set [2]; 55.3 ± 5.3 nM in data set [3]; 47.4 ± 6.7 nM in data set [4]; 91.1 ± 15.6 nM in data set [5]; 25.2 ± 2.3 nM in data set [1].
